Results reported in the DeepSol protein solubility set.

Test: soluble on expression in E. coli; label from the status in PepcDB or PDB records

Sequence | soluble on expression in E. coli
MRMGRYFGTSGIREVVNEKLTPELALKVGLALGTYLQEGKVVIGCDTRTSSVMLKNAVISGLLATGIDVIDIGLAPTPLTGFAIRLYNAEAGVTITASHNPPQYNGIKVWDRDGMAYTPDKEHELEKIIESGNFRRVPWNEVGTLKTANPRKEYIEAILREINLKGSYTVVIDAGNGAGSIVSPYLHRELGNRVITLNSDPSGFFVRELEPNKESLSMLEKTVKVLNADIGIAHDGDADRVGVVDENGEFVEYEVMLSLIAGYMLKKYGKGKIVTTVDAGFALDDYIRELGGEVVRTRVGDVAVAEELVKHGGVFGGEPSGTWIMPQWNLTPDGIFASALVLEMIDRLGPIGELAKDVPKYVTLRKKIPCSNELKNKVMNKIADLIPREFSYERIITIDGIRIENDDWWILFRPSGTEPIMRITLEAHTEEMAERLMKKAENLVKSVIKDLSS | soluble
MAHHHHHHMGGCCKGARCPFSHELVQLPPKGVDASGGYFISGNVANYRAAASTSTASPSSRSFVGRWDDPTASSSTDGLSTLASPSSCCVTTGTSLSAEAKEWVGADSAATSSSANSATASITSVQSLRGAASPTFCVSSSSLRYRSAALRRTAQQVSPLPMPHSQRDSQPQPQQAQTQLQSQQSQKPQPSPPQPQLHQQHKRQYQPPPQPRSVANALSALLPNHSESSAAAETRHTSAAPAHPAATARTVSFTQSSNGSGSTTIAALASFFDMQRVSTGAPSATPSSAASQPSKVVFATRRDDQTPATAPTPATAAPPRYTAACITLAASNQRFDPSPSAPSIPTTATPAPAHGSSRSATTSQHMEAPLPRSREALATGAEHQTATVAKAHVTQSAAPPSAAAAPTSPPQYESRTASSAQTRVMPPAPRSQQQQAAHQAQQLRAQEEAQRQVQIQQQLHAQQQAQQLAQQQAQLQQFQQQIQPQKPPPPQQTVYMLTTSRPPTTSTPPHEGIVAPDQLPLGYTLAYAVSTPTPTASAATPILISEQPSAARPTYTLLSSCPPQSQLQSFQTAKGTVLYATPAQVLTQAAAPSENDAPRLILVNTDGTFTVLQAETLAATAGLGLSPTIMRAH | not soluble
MSLHWLNRNTRKGSQKNIAAHYDLGNTLFEQFLDPTMMYSAAQFLSNDDTLEQAQLNKLERICQKLALKPTDHLLEIGTGWGSMAIYAAQQYGCRVTTTTLSREQFAYTEQRLIKLGLQDRVTLLLTDYRDLTGEYDKLVSIEMIEAVGHRFLPTYFKQCASLLKSNGMMLLQAITIREQRYAQAKRNVDFIQRYIFPGGALPSVAKMLDIVGSDTDMNLLHMEDFGLHYARTLRLWHDNFKHAHGTLTELGYDDYFLRLWEFYLCYCEGGFLERTIGTAQLLLAKPDALREGHHHHHH | not soluble
MLQYPELPLESPLIDAELPDPRGGRYRLSQFHEPLLAVVFMCNHCPYVKGSIGELVALAERYRGKVAFVGINANDYEKYPEDAPEKMAAFAEEHGIFFPYLLDETQEVAKAYRALRTPEVFLFDERRLLRYHGRVNDNPKDPSKVQSHDLEAAIEALLRGEEPPLKEAPAIGCTIKWRPGNEPEVRIG | soluble
MSSSPVKRQRMESALDQLKQFTTVVADTGDFHAIDEYKPQDATTNPSLILAAAQMPAYQELVEEAIAYGRKLGGSQEDQIKNAIDKLFVLFGAEILKKIPGRVSTEVDARLSFDKDAMVARARRLIELYKEAGISKDRILIKLSSTWEGIQAGKELEEQHGIHCNMTLLFSFAQAVACAEAGVTLISPFVGRILDWHVANTDKKSYEPLEDPGVKSVTKIYNYYKKFSYKTIVMGASFRNTGEIKALAGCDFLTISPKLLGELLQDNAKLVPVLSAKAAQASDLEKIHLDEKSFRWLHNEDQMAVEKLSDGIRKFAADAVKLERMLTERMFNAENGK | soluble
MIDPVCGMKVDKNAKFKSTYNGKEYYFCSEHCKVEFDRNPIKYTR | not soluble
SMSDVTIVKEGWVQKRGEYIKNWRPRYFLLKTDGSFIGYKEKPQDVDLPYPLNNFSVAKCQLMKTERPKPNTFIIRCLQWTTVIERTFHVDTPEEREEWTEAIQAVADRLQRQEEERMN | soluble
MKKTLTSPLVAAIAHTAAPVHAGTLEDVKARGNLLCSSTTGSPGFSMPDDAGKRHGLEVDVCRAIATAVFGDPERHKIVVLNPIQRFTALQSGEVDILFNTTTWTLSREGAGALYAGVTYYDGQGVLVRKGTIASAKELDGGAICTNQGSTTELNLVDFFRANKVSNEVITFATVQEAANAYESGRCDAWSADAGILAALRSKMKAPDDHVILADRLSKEPLGAAVRKGDDAWFSVVRWSIFALQAAEELGLTSKNIAEQAKSTTNPEVLRFVGKEGSLGKVLGLNGDWAYQIVAQVGSYAEIFDRNIGAASPLNLERGINASWKNGGLFYTPPFR | not soluble
LDINKPENVISKEVSFLGEALPKSIKSECPNESFTLDDKDVVKSTSGSVQNEPLKNINENIYDPKLKKALDKSKPEILIYHSHTTEAYKPYPADSLNSTQNVCAVGDELVKELGEKYGIYAINDKTVHNVVDYNKSYTRSGETLDKYLKQYGDFKMIIDMHRDSDVPKSKVTARINGEDVAKFMFVMTRKNPHFDKNMALVNGLVSICNKDFPGIFNGIYYYDYGINYYNQQKSNNAFLLEVGSDINTIDEAKGTSKYLARIIAEYLNGKK | not soluble
MGQIQYSEKYFDDTFEYRHVVLPPEVAKLLPKNRLLSENEWRAIGVQQSRGWVHYAVHRPEPHIMLFRRPLNYQQQQENQAQNMLVK | soluble
QGQFFREIENLKEYFNASSPDVAKGGPLFSEILKNWKDESDKKIIQSQIVSFYFKLFENLKDNQVIQRSMDIIKQDMFQKFLNGSSEKLEDFKKLIQIPVDDLQIQRKAINELIKVMNDLS | soluble
KLEAMKEAEGKEPSETDIKPKRIEEPVLKGFAAPAQTAPAPVSKPAPVAKKKEVEQEAKPGLFSRLFKALGSFLFGGSEEVKEEPKQEEKKSNRDNKRNKRDRNDRRRSNQRDNREGRENRDNRRRRKPREEQANEQNEAQQPANKQQPNRSQKRKPKPQQAEKAQEPKANAKVAEKGLQLAAEARSEVKPEENKAKANAKTEKVKERRQRRKLNKSVRVKDQLADEQVEETAVKAIEPVESQVDQAVDTAADAQQDNKQGESKQRRNRRSPRHLRASGQRRRRGRDRRPNPFRLRKGGVASPEMAMGKVMPRYIPKPAPKKEERVQEETVVAIATVPAMQGGFACPEMAMGKVIIRREQPAVAEAPVVEPKVQETVEAKAESPIVEAVAPEKAEPVAVDQAPVEPIVEVAEAPVAEATTETVVEEAPVQEPVVAETVEEAATEVAVETPVAAPEMKAEVINVVAKPRASAPMTKAPGPQELREIEVAAAPFKAERYQAKGAGSQVATNRASAAMTKPNFN | not soluble
SLTNKLESNYNKIACNIFYDKYKNANEIIKALKLIDIDDNDFKKSFSIYSKKATSGNDEKIVKFLLFNIERHLSGGICDEQIATIEHILPSSLNDEKVHKLGNYILLEAKYNQQLKNKNFKEKIDIYSKSNFKLAQYVAENFKTWDTKSIDQYQNFLAKQALALWKF | soluble
MKILVYGINYSPELTGIGKYTGEMVEWLAAQGHEVRVITAPPYYPQWQVGENYSAWRYKREEGAATVWRCPLYVPKQPSTLKRLLHLGSFAVSSFFPLMAQRRWKPDRIIGVVPTLFCAPGMRLLAKLSGARTVLHIQDYEVDAMLGLGLAGKGKGGKVAQLATAFERSGLHNVDNVSTISRSMMNKAIEKGVAAENVIFFPNWSEIARFQHVADADVDALRNQLDLPDNKKIILYSGNIGEKQGLENVIEAADRLRDEPLIFAIVGQGGGKARLEKMAQQRGLRNMQFFPLQSYDALPALLKMGDCHLVVQKRGAADAVLPSKLTNILAVGGNAVITAEAYTELGQLCETFPGIAVCVEPESVEALVAGIRQALLLPKHNTVAREYAERTLDKENVLRQFINDIRG | soluble
MIRLTNIKLPLDHQEHELEQAILTKLSIKAVQLIKFTVFKRGYDARKKNSIFLIYTLDVETNVDEALLATFIADTQVKETPDMAYKFVSQAPKNLKNRPVVIGMGPCGLFVGLVLAQMGFNPIVLERGQEVRQRTKDTFGFWRKKILNTESNVQFGEGGAGTFSDGKLYSQVKDPKHYSRKVLHEFVAAGAPEEILYVSKPHIGTFKLVTMVEKMRAKIFELGGEVRFNQRVDKIHFTDVEGNECTAQGIEGYQNKKVTGLTLSNGDHIETNYIALAIGHSARDTFSMLFDEDVYMKAKPFSVGFRIEHEQAVIDEARFGNNAGNEILGSADYKLVHHCSNGRSVYSFCMCPGGTVVAAASEEGRLVTNGMSQYSRLERNANSAIVVGIEPEDFITSEFASDRDYVLAGMEFQRNLEAKAFKLGGESYDAPVQLVGDFLAGRKSGEHGSVAPSYKPGVTYCDLSETLPDYAIAAIREALPAFDKKIKGFSMAEATLTAVETRTSSPIQITRDKETLQSLNAQGLYPAGEGAGYAGGILSAGIDGIKIAEAMALAITAEQEHLEHHHHHH | not soluble
MSLIAIYVRVSTEEQAIKGSSIDSQIEACIKKAGTKDVLKYADEGFSGELLERPALNRLREDASKGLISQVICYDPDRLSRKLMNQLIIDDELRKRNIPLIFVNGEYANSPEGQLFFAMRGAISEFEKAKIKERTSSGRLQKMKKGMIIKDSKLYGYKFVKEKRTLEILEEEAKIIRMIFNYFTDHKSPFFGRVNGIALHLTQMGVKTKKGEGHHHHHH | not soluble
MENDLKKLTKEIVGRLKNKSVKELLSYAIFNEEEEAKFYADLAEKVSRPSVKALFRRMSEESKVHELLLRKLFSKYFPGEEPVKVDVPPVEVVPFISKFESIEDYLEGLRYCMESELFAKRTYVLLSQVAENEGVRMVANELASIEQNHYEEIKAVYELVKTFRDREMLPESLKSGAYLITNESVGKYLILDLIDENKKLKLFVRENPEIFRRLIGENPNVEITWIAKVNAPNTISPTETHVLKKDIESFFEKVTKEGKKGVVFIQNVAYLVANLGFKETVDLLLHAKDLAVYYGGYLIITANPEVFEKTEWALLKLEFEVLF | not soluble
MSSDTGSEYLDEEIRGDELGPSIDDNALAAAASAARLPFDRPTDHELAFFPELWEHKTAVEVFLLLRNSTLATWQYNPLKECTALDVRNNVFPPFNSDLDLIQNIVHYLSRHGLINFGRYVRSTKISRFLVRDRRSVIVIGAGAAGISAATQLESFGFDVIVLEARNCIGGRIHSFKSKSGEIMETGGDTLRKIEDSPMATLLHQVNFEEHGVFDFTSVFVEGRPLNEEKIHLFLDHYKSAHGALNYQAHQCEHRDDQGSFISRQQAYENLLSMCERGTLIKYYNFCKSLETVARAREHHFNQMKQLRMTALMAENQLKKMEEEGNLEQDPVLRRSLKRDIATSLEKFEEVADAFETADNHWQRLNEHPQAKQYMHPGSEFATFNFMLGFEEYLVGAQLEKVQFSCDSMQNKENGVAARLTEGIAELLTQLSEKRKLDIRLKHRVLDIDYSGFEHVLLKVQRENGDIEEMKAAFVVSTLPIGVLKKTIIADERAPTFTPSLPDKKVEAIRNIGCGSVNKCILEFDRVFWTANGGRNQFVTVSPNIKTRGSMNIWSSVPGSKVLCTYIVGEEAMLELPDDVIIQNAMINLQKAFGNNCPRAPISAHITRWHDDELAFGSGAFMSLRTETTSFDDVMEPLKTSDGMSRVYFAGEHTCSSYTSTIQGAWMSGARAAADISNDHIGIGFVDISGTRGQRGDEEEELLIEVDIDGKIPEKDENEAVADIPNAPNAPNAQKPEEIPKIAEEIELVAEAEKAEKAEVQLEPLVPTVE | not soluble
MTDVEIKAENGSGDASLEPENLRKIFVGGLTSNTTDDLMREFYSQFGEITDIIVMRDPTTKRSRGFGFVTFSGKTEVDAAMKQRPHIIDGKTVDPKRAVPRDDKNRSESNVSTKRLYVSGVREDHTEDMLTEYFTKYGTVTKSEIILDKATQKPRGFGFVTFDDHDSVDQCVLQKSHMVNGHRCDVRKGLSKDEMSKAQMNRDRETRGGRSRDGQRGGYNGGGGGGGGWGGPAQRGGPGAYGGPGGGGQGGYGGDYGGGWGQQGGGGQGGWGGPQQQQGGGGWGQQGGGGQGGWGGPQQQQQGGWGGPQQGGGGGGWGGQGQQQGGWGGQSGAQQWAHAQGGNRNY | not soluble
